The record followed here is paper PMC8495130, “Synthesis of L-asparagine Catalyzed by a Novel Asparagine Synthase Coupled With an ATP Regeneration System” (Frontiers in Bioengineering and Biotechnology, 2021).

Substrate in data set [1]: Nc1ncnc2c1ncn2[C@@H]1O[C@H](COP(=O)(O)OP(=O)(O)OP(=O)(O)O)[C@@H](O)[C@H]1O
Briefly: HPLC of L-Asn after OPA derivatization; double reciprocal plot. The format is biochemical, Ligilactobacillus salivarius. As to conditions: standard assay: L-Asp, NH4Cl, Mg2+, Tris-HCl pH 8.0, 37°C, purification state of the kinetic sample not stated. An excerpt:
HPLC of L-Asn after OPA derivatization; double reciprocal plot on LsaAS-A

Substrate in data set [2]: N
Briefly: purified protein. As to conditions: standard assay: L-Asp, ATP, Mg2+, Tris-HCl pH 8.0, 37°C, purification state of the kinetic sample not stated.

Substrate in data set [3]: N[C@@H](CC(=O)O)C(=O)O
The experiment in a line: purified protein. As to conditions: standard assay: NH4Cl, ATP, Mg2+, Tris-HCl pH 8.0, 37°C, purification state of the kinetic sample not stated.

B1: LsaAS-A (Ligilactobacillus salivarius UCC118) (protein)
chain: MDLIIPKDYDPKLSIRETQEAIRYIRETFQDEFGKEMGLNRVSAPMYVEKSSGINDNLNGYEKPVSFTMKDMPGETIEVVHSLAKWKRMALKKYGFGLHEGLYTNMNAIRKDEDLDNFHSSYVDQWDWEKVISKDERNEKTLKETVELIFKVVKHMEHEVWYKFPNAVYHLPDKIHFITSQELEDKYPELEDAKDRENAICKELGCVFVMQIGDVLKSGKRHDGRAPDYDDWKLNGDILFWYEPLQCALELSSMGIRVDEDSMVEQLKKTGDEDRLKLQYHKMILNKELPYTIGGGIGQSRLCMLLLGKAHVGEVQASIWPDEMLKKCEENGIHIL
notes: full-length asnA product (~40 kDa) from plasmid pMA5, expressed in Bacillus subtilis WB600; Ni-NTA purification described in methods
Consider B1, for which the results for the Michaelis-Menten constant (Km) in data set [1], in data set [2] and in data set [3] were 2240 µM, 6500 µM and 780 µM, respectively.

For orientation: Km means the substrate concentration at which the rate is half of its maximum.
